Biological target: recombinant protein A/G (Pierce)
Test: plasmonic metamaterial refractive-index sensing (resonance wavelength shift, reflection probe); protein A/G (500 ug/mL in PBS, 45 min) physisorbed on gold nanodiscs of the sensor, washed 30 min with PBS; IgG 50 ug/mL applied in a microfluidic cell, plateau after 45 min, washed 30 min with …; reflection read at 1 min intervals

## antimouse IgG (labeled with FITC) produced in goat (F5262, Sigma-Aldrich) (antibody)
  resonance wavelength shift: 2 nm
